± gives the uncertainty stated by the source.

The data set is described as follows: amyloid nucleation score (Sup35N fusion, yeast selection) (log enrichment); library NNK1; higher = more nucleation; inactive = no reads after selection. A digest of the protocol: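 Using DiMSum, nucleation scores were taken as the log enrichment of output over input reads, centred on the mode score of non-aggregating sequences. The input and output reads came from Illumina sequencing of plasmid inserts, with sequences under 100 input reads excluded. The yeast were psi-negative, expressed Sup35N fused to peptides of 20 random codons, were induced with 100 μM copper sulfate for 24 hours, and were grown 7 days at 30°C on medium lacking adenine and uracil.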
In the case of WGKLTKQERGWDNDKVNQEC, the amyloid nucleation score was 0.094 ± 0.4. For the substance YLPVYNY, the amyloid nucleation score came to 0.487 ± 0.65.

The substance FGYSAGHERMVHCVGLRSSG showed an amyloid nucleation score of 1.37 ± 0.69.

PVSDLVIFLQLRFRNTCMLP: the amyloid nucleation score stood at 0.952 ± 0.92.

Take SHKRIWDIFNIGFHQCD: the amyloid nucleation score was determined as 0.048 ± 0.59. Regarding LVKLIWRISAWHSWFVSR, the amyloid nucleation score is 1.48 ± 0.8. Turning to PAMSVGQRFYGEQHSCGLSA, the amyloid nucleation score was -0.583 ± 0.43. The same measure for SATTIFFRYSKIREFRLVFG: “inactive”; for PINGEGSVSTLNDMVLSRSI: 1.26 ± 0.81; for GLQFSFVEFFSLYVESEDHY: 0.332 ± 0.35.

VFSNLELTFDRGCFPVRCLR came in with an amyloid nucleation score of -0.482 ± 0.35.

The substance VASFRMG yielded an amyloid nucleation score of 1.37 ± 0.14. GTLGSWSIIISLIRHSECLC yielded an amyloid nucleation score of -0.659 ± 0.46. Substance FTDTEYLQGLDIGVGMERLY registered an amyloid nucleation score of -0.218 ± 0.65.

In the case of YLQEWRIGRVGCVGFTCRCR, the amyloid nucleation score stood at 0.279 ± 0.45. For VPNFDQSNGQCIGDTVLMWC, the amyloid nucleation score stood at 1.74 ± 0.49.

On to GLRSESRKRGGGGGVAREVG, for which the amyloid nucleation score is -0.053 ± 0.86. The same measure for CHRRMMNEWSGLKNVLFKKG: 0.791 ± 0.97; for SRTVTLFHHASNKSFHSSVS: -0.074 ± 0.9; for CWNVLNCMHAFRCGPMNQRR: 0.831 ± 0.58. YIHDQIIALFKQDLFSGSLH came in with an amyloid nucleation score of 0.961 ± 0.69. In the case of RWNRSSDTCLCLHSMMLT, the amyloid nucleation score was -0.518 ± 1.1.

In the case of CIEDVCCS, the amyloid nucleation score is -0.016 ± 0.23.

Regarding ISIIVVKFDMLLSNHHNSDA, the amyloid nucleation score is 0.486 ± 0.58. Under IMWSKENWDGG stands -0.649 ± 0.44; under LCLYGVC, -0.164 ± 0.56. For IMSSL, the amyloid nucleation score is -0.507 ± 0.73. VLSFVLDYCNAEV registered an amyloid nucleation score of 0.653 ± 0.45. In the case of YIDEIY, the amyloid nucleation score was -0.759 ± 0.35. Substance NVSLRFGSYPGVNVGSAFMV returned an amyloid nucleation score of -0.109 ± 0.53. For SLDCLLYTLVDCRAFSFYKN, the amyloid nucleation score is -0.359 ± 0.39. LTNGAVGVTFAQNVWPFYAN returned an amyloid nucleation score of 3.67 ± 0.074. WAILLSWGYKGSRAWWFFSI had an amyloid nucleation score of -0.721 ± 0.49.

Consider GINNIYGLRYRHMPTSSIVA, for which the amyloid nucleation score amounted to 1.88 ± 0.39. In turn, WLTNWFEPRWSLVMQSVRCP displayed an amyloid nucleation score of -0.121 ± 0.44. In the case of FVKNSKHYRPFLNGSKRM, the amyloid nucleation score is 0.475 ± 0.83. SGWSYRRAGRHWMAMMGNKF gave an amyloid nucleation score of -0.04 ± 0.34. IIQCNVTYAS had an amyloid nucleation score of 3.63 ± 0.12.

Regarding KMATRINGWCDGASATTV, the amyloid nucleation score was -0.154 ± 0.74. Substance PSSYF returned an amyloid nucleation score of 0.45 ± 0.47. Take QSSSLHKHSFTHVVSQNEGG: the amyloid nucleation score was determined as 0.543 ± 0.26. On to DIVRWLCPHRTK, for which the amyloid nucleation score is 1.23 ± 0.93. The same measure for YVGQGPGSLLTTGWVRYSL: -0.137 ± 0.6; for FKRLNRFYRSLAIMTSTSHL: -0.149 ± 0.69. In turn, IAREVSSVTVSPQEGTRWWG registered an amyloid nucleation score of 0.276 ± 0.3. Under NTGREVFIRIMCPL stands -0.212 ± 0.73.

Turning to IVNAGICPGNSRYSGNGATR, the amyloid nucleation score was -0.162 ± 0.53. Regarding QLRYKIVMHRQSEHKPSLLN, the amyloid nucleation score was -0.855 ± 1.5. With KVPKRKITNFRGMSGFSRYR, the amyloid nucleation score came to 0.985 ± 0.98. Substance NYCGLGSMYL showed an amyloid nucleation score of 1.1 ± 0.8. With SSLQFEMVFGTCYCRKSYSR, the amyloid nucleation score is 4.19 ± 0.082. Take TLVKVRSELYSGRDAYELVS: the amyloid nucleation score was determined as 0.035 ± 0.26. In the case of VLGISLSERNLKGIV, the amyloid nucleation score worked out at 0.232 ± 0.32. The same measure for WASTLEDVMRQEKVHLWMIG: -0.242 ± 0.3. In turn, PSFHICL showed an amyloid nucleation score of -0.489 ± 0.41. IQSPC showed an amyloid nucleation score of -0.171 ± 0.23.

Take RMPRCKVFSVFSLLHAQY: the amyloid nucleation score came to 1.35 ± 0.9. The same measure for VLDFLYILCVTLANDFLKGW: 0.961 ± 0.76; for GDMFVAKCYSRGDSQISLMF: 0.368 ± 0.37. In turn, LDTIVIVWRNCLRYKFHLCL returned an amyloid nucleation score of -0.057 ± 0.84.

For AVVERFHL, the amyloid nucleation score was -0.132 ± 0.39. The substance ILILRGNCR gave an amyloid nucleation score of -0.165 ± 0.73. In turn, IIFHICRTGEDLTKSGCLSW yielded an amyloid nucleation score of -0.494 ± 1.1. DCMIVGLHHIKVRHSLFVRW gave an amyloid nucleation score of -0.128 ± 0.33.

With SNTTIFFSFNRVPTISLNHS, the amyloid nucleation score is 3.82 ± 0.1. On to VQSSFSFYDVVNSPGHRWTW, for which the amyloid nucleation score was 0.14 ± 0.45. RSVAHSYT registered an amyloid nucleation score of 0.661 ± 0.54. NDVRYLLDMDLLASSADYFM yielded an amyloid nucleation score of -0.732 ± 1.1. DLIRPLSCTRVLSPNFLCS had an amyloid nucleation score of -0.54 ± 0.66.

As for CMAGRNSFKLYMRRFNEENY, the amyloid nucleation score result was “inactive”. In turn, NGFPTNELLFPALKVCNSRV displayed an amyloid nucleation score of 0.945 ± 1.1. As to YHCLWGFVGVLKSDSLRDRR, the amyloid nucleation score was 0.602 ± 0.38. Take GTGSSAVDVFSGLMCGTDVL: the amyloid nucleation score was -0.145 ± 0.46.

ICIASFCKKNVTCGLIWLIV: the amyloid nucleation score is 1.51 ± 0.7. Take WLPMPSV: the amyloid nucleation score was 0.411 ± 0.47. NTYDHMTYNRGFRSM: the amyloid nucleation score entry is “inactive”. FNDGYSVAEA came in with an amyloid nucleation score of 0.998 ± 0.48.

With LCSMTKTNVVRSECRVLTRR, the amyloid nucleation score was 1.86 ± 0.65. Under TWLYEIHTILMIGGIMRKRG stands 0.734 ± 0.45; under TCRESMRYVDNGLAFYSWFY, -0.983 ± 0.56. Substance STEIATKGGGQLGIISTNDA had an amyloid nucleation score of 0.254 ± 0.56. On to QFSLPLCGYKRRHNGSFAEM, for which the amyloid nucleation score was -1.14 ± 2.1. In turn, MMFLTNCCFMVLNCYTCVRY showed an amyloid nucleation score of 3.53 ± 0.066. AGGQGRLSRKVYSTMWVESL registered an amyloid nucleation score of 1.17 ± 0.21.

The substance FDCVMLISHHCVILCCFSDM registered an amyloid nucleation score of 0.205 ± 1.1.

For VMWGQPCQIFSGYAYLRHKV, the amyloid nucleation score stood at 0.053 ± 0.48. Under NFAYGVNYLSAVKGCFTFAR stands -0.206 ± 1.5; under NELMSYVWQDKPRKYRYLF, 1.2 ± 0.13; under QRARIINRKHV, 0.214 ± 0.74. The same measure for RIYRFLKLLIRGGVISVARY: -0.758 ± 1.9. Under YDKFFGVSIDDR stands 0.038 ± 0.59; under RFSQWLPFWSVGGELQSCFC, 0.239 ± 0.68. Take FRYYRF: the amyloid nucleation score worked out at 0.522 ± 0.45. The substance GVADMAVRGQCSHYSVAWST yielded an amyloid nucleation score of -1.07 ± 0.82. Substance CLCDAISYSGIIKDVDKVCE displayed an amyloid nucleation score of 0.875 ± 0.93.

For the substance FSVKFVSNPFSQLLSARPWW, the amyloid nucleation score is -0.603 ± 0.34. Under SGIEAFNRIIGVCCVLEAGR stands 3.58 ± 0.19.

WYQLVVVEQGSTLYS registered an amyloid nucleation score of 0.341 ± 0.68. FLRNNKIPVVFFSPS: the amyloid nucleation score entry was “inactive”. Consider SLWRDKDISWGGKSYVHVPS, for which the amyloid nucleation score came out at 1.14 ± 0.75.

Regarding PRLMLYCSLYDIESFIIGRC, the amyloid nucleation score entry was “inactive”. As for YNHIEFGWCLLVGFVMRKSR, the amyloid nucleation score turned out to be 3.53 ± 0.12. With KGLIKDNCNTSGGEFNCGY, the amyloid nucleation score is -0.278 ± 0.21.

As for NHFFCGLGNYLSAVFIVIRK, the amyloid nucleation score was -0.159 ± 1.4.

As for VINRSQIRGHRAFSWVGPSL, the amyloid nucleation score turned out to be 0.53 ± 0.38. Turning to QGAGAGKITVGTVGVGGTEL, the amyloid nucleation score entry is “inactive”.

Substance ALSGCERRNHLSCRSNLRDG yielded an amyloid nucleation score of -0.542 ± 0.91. In the case of TSFCGLVAPQLCKFSMRSLE, the amyloid nucleation score is -0.504 ± 0.47.

As to LLCSKCGFTDQFQS, the amyloid nucleation score was -1.09 ± 1.2. As to DTLIAWTGLVMFTSVERGCS, the amyloid nucleation score was -0.299 ± 0.37. For TPVTRIILVVVIRVPSGSGY, the amyloid nucleation score was -1.03 ± 0.8.

For the substance GKLVVFNFL, the amyloid nucleation score was determined as 8.483 ± 0.048.

RWAWVDYNLCRVCLTKYS yielded an amyloid nucleation score of -0.161 ± 0.58. Under KRPHGDH stands 0.416 ± 0.73.

SRVSTFGWIIRSEYYFFWAW gave an amyloid nucleation score of 0.666 ± 0.32. With TFVACDLKCPRCAWVGDFVM, the amyloid nucleation score is -0.912 ± 0.5. FRDCLLVRYLCNVLTGDCTH gave an amyloid nucleation score of 1.94 ± 0.52. In turn, LYFEIYRVIIFKDAFVASMR displayed an amyloid nucleation score of -0.63 ± 0.64. For VGCFLIKSGEQ, the amyloid nucleation score was -0.385 ± 0.36. Under VMYHGVLYLVNKKVRAWVVG stands -0.511 ± 0.76; under ENVYGWVG, 1.09 ± 0.15. TLTVRRCSCQVQWGLRMFHL: the amyloid nucleation score is -0.653 ± 1.4. Under FSRFLYEYGCGELVATFLPW stands 0.517 ± 0.24; under FAMTNFRYDLPQTHPLPRAV, -0.679 ± 0.54; under FDRHPGTYCDVKLLCREHSA, “inactive”.

In the case of DNRDYVALSFPRKLKWCYIS, the amyloid nucleation score was -0.834 ± 0.25. Substance AASRLVRDDWTLISGHPSKA yielded an amyloid nucleation score of 0.844 ± 0.73.

With ASFRNRPCVQCPGLCILRLS, the amyloid nucleation score turned out to be 0.002 ± 0.24.

LLWGATFCSSIQPDYNLSPV displayed an amyloid nucleation score of -0.095 ± 0.44. Substance FKYSGRCWGANECIKNYNYV had an amyloid nucleation score of 0.07 ± 0.39.

As for GYIVYDIMYAIFYKQTVYLI, the amyloid nucleation score result was “inactive”. Take RQSWPGYFVCSYQCVRMGNR: the amyloid nucleation score is -0.084 ± 0.3. In turn, EIVSIS had an amyloid nucleation score of -0.42 ± 1.2.

For the substance LRYSYTRDHSGTPYPSTGNS, the amyloid nucleation score is -0.74 ± 1.1.

The substance EDGPWACTCYYCGQGRRTWV gave an amyloid nucleation score of 0.16 ± 0.9. KYPYLYLPIRMLNRQHARVG registered an amyloid nucleation score of 0.449 ± 0.62. Substance SVSGLYQHRSF gave an amyloid nucleation score of 0.184 ± 0.35. The substance QCGEICLCRSAGVVHSPRGW came in with an amyloid nucleation score of -0.513 ± 0.55.
